# Experimental data reported in patent publication US7829301B2, “Screening assays for binding antagonists of the AMD-associated variant of factor H (H384)” (The University of Manchester, priority 2006, dated 2010).
# Numbering of substitutions follows the chain as printed.
# B1: FHCCP6-8(H384): recombinant protein of Factor H CCPs 6-8, H384 allotype, with N-terminal non-authentic glycine (SEQ ID NO: 1) (protein, listed as Homo sapiens)
# chain: MGTLKPCDYPDIKHGGLYHENMRRPYFPVAVGKYYSYYCDEHFETPSGSYWDHIHCTQDGWSPAVPCLRKCYFPYLENGYNQNHGRKFVQGKSIDVACHPGYALPKAQTTVTCMENGWSPTPRCIRVKTCSKSSIDIENGFISESQYTYALKEKAKYQCKLGYVTADGETSGSITCGKDGWSAQPTCI
# modifications: VARIANT (1)...(188) Protein sequence of the FHCCP6-8 (H384) construct
# B2: FHCCP6-8(Y384): recombinant Factor H CCPs 6-8, Y384 variant obtained by site-directed mutagenesis (SEQ ID NO: 3) (protein, listed as Homo sapiens)
# chain: B1 chain with H84Y
# modifications: VARIANT (1)...(188) FHCCP6-8 (Y384 allotype of mature Factor H)
# Key:
# [1] = Microtitre plate assay: biotinylated proteins binding to immobilized dermatan sulphate; set-up: species or system porcine; details: biotinylated proteins 0-10 pmol/well
# Source text: (§1) The heparin/HS/DS-binding activities of the FHCCP6-8(H384) and FHCCP6-8(Y384) variants (using biotinylated-FHCCP6-8 constructs), and in some cases full-length Factor H (detected with an antibody), were compared using an assay where the glycosaminoglycans (GAGs) were immobilized on allylamine-coated EpranEx plates (Mahoney et al (2004) Anal. Biochem. 330, 123-129), kindly supplied by Plasso Technology Ltd., Sheffield, UK. Previously, we have shown that heparin/HS can bind non-covalently to surfaces plasma polymerized with allylamine in such a way that these GAGs can still associate with a wide-range of proteins (Mahoney et al. (2005) J. Biol. Chem. 280, 27044-27055; Mahoney et al. (2004) ibid).
# (§2) The following GAG preparations were analyzed: unfractionated heparins corresponding to the 2nd, 4th and 5th International Standards (denoted here as 2IS, 4IS and 5IS, respectively (Mulloy et al. (2000) Thromb. Haemost. 52, 148-153)); enoxaparin, dalteparin and LMr heparin from Sigma (Cat. No. H3400); selectively desulfated heparins prepared from 2IS heparin as described in Mulloy et al. (1994) Carbohydr. […]
# (§3) In the case of the biotinylated FHCCP6-8(H384) and FHCCP6-8(Y384) constructs, bound material was detected by adding 200 μl/well of a 1:10,000 dilution of ExtrAvidin alkaline phosphatase (Sigma, Cat. No. E-2636) for 30 minutes. […]
# [2] = Microtitre plate assay: biotinylated proteins binding to selectively desulphated 2IS heparin
# Source text: as §1, §2
# In the case of the biotinylated FHCCP6-8(H384) and FHCCP6-8(Y384) constructs, bound material was detected by adding 200 μl/well of a 1:10,000 dilution of ExtrAvidin alkaline phosphatase (Sigma, Cat. No. E-2636) for 30 minutes. […] For the full-length protein, the level of binding (to 4IS, HSI and HSII) was determined by incubation of the plates for 30 min with MRC OX23 (a monoclonal antibody against factor H (Sim et al. (1983) Biosci. Rep. 3, 1119-1131; 1 μg/well) followed by a 1:1000 dilution of alkaline phosphatase-conjugated goat anti-mouse IgG (Sigma, Cat. No. A-3438) for another 30 minutes. The plates were then developed for 10 min as described above. The absorbance values at 405 nm were determined and corrected against blank wells (i.e., those that contained no GAGs).
# Linearized pcDNA3-vector = assay: Protein/DNA binding assay (agarose gel migration); details: 5 μg protein, 30 ng DNA, 30 minutes at 37° C.
# Description: Plasmid pcDNA3 DNA (Invitrogen) was linearized using EcoR1 (Fermentas) in a buffer accompanying the enzyme.
# Linearized pcDNA3-vector (30 ng) was incubated with 5 μg of FHCCP(H384), FHCCP6-8(Y384) or full length FH (positive control) in the binding buffer (as described above) in a total volume of 20 μl for 30 minutes at 37° C. The negative control contained no protein. DNA loading buffer (0.25% (w/v) bromophenol blue, 0.25% (w/v) xylene cyanol, 30% (v/v) glycerol in deionized water) was added (1 μl) and the samples were run on an agarose gel (0.8% (w/v), Cambrex) containing ethidium bromide (Sigma) and visualized by UV. Changes in DNA migration served as a means of evaluating the presence of DNA-protein complexes.
# [3] = Microtitre plate assay: biotinylated proteins binding to unfractionated heparin immobilized on EpranEx plates
# Description: The heparin/HS/DS-binding activities of the FHCCP6-8(H384) and FHCCP6-8(Y384) variants (using biotinylated-FHCCP6-8 constructs), and in some cases full-length Factor H (detected with an antibody), were compared using an assay where the glycosaminoglycans (GAGs) were immobilized on allylamine-coated EpranEx plates (Mahoney et al (2004) Anal. Biochem. 330, 123-129), kindly supplied by Plasso Technology Ltd., Sheffield, UK. […]
# as §2, §3
# In these plate assays all data points were determined in quadruplicate from each of two independent experiments.
# [4] = Biotinylated bovine HS plate assay; assay type: binding; details: proteins immobilised at 1 μg/well
# Description: The HS binding properties of FHCCP6-8(H384), FHCCP6-8(Y384) and full length Factor H were further tested using biotinylated bovine kidney heparan sulphate (Sigma) where the proteins were coated onto the wells of a Maxisorp microtitre plate (NUNC) at 1 μg/well in PBS (Oxoid; 137 mM NaCl, 2.6 mM KCl, 8.2 mM Na2HPO4, 1.5 mM KH2PO4, pH 7.3) overnight at room temperature. Link_TSG6 (denoted as L-TSG-6 in FIG. 9), a known HS-binding domain (see Mahoney et al. (2005) J. Biol. Chem. 280, 27044-27055) was immobilised at 1 μg/well as a positive control. Plates were blocked the next morning with 1% (w/v) BSA (Sigma, Cat. No. A-4503) in standard assay buffer (20 mM HEPES, 130 mM NaCl, 0.05% (v/v) Tween-20, pH 7.3) for 90 minutes at 37° C. The standard assay buffer was used for all subsequent incubations, dilutions and washes at room temperature. The biotinylated HS was incubated at various concentrations with the immobilised proteins for 4 hours. Bound material was detected by adding 200 μl/well of a 1:10,000 dilution of ExtrAvidin alkaline phosphatase (Sigma, Cat. No. E-2636) for 30 minutes. Plates were then developed with 200 μl/well of 1 mg/ml disodium p-nitrophenylphosphate (pNPP; Sigma) in 0.05 M Tris-HCl, 0.1 M NaCl, pH9.3, and developed for 40 minutes; the absorbance at 405 nm was measured and the signal from blank wells subtracted.
# [5] = Microtitre plate assay: binding to HSI and HSII immobilized on EpranEx plate; set-up: species or system pig; details: HS immobilized on allylamine-coated EpranEx plate
# Source text: as §1, §2, §3
Molecule,interaction with DS [1],effect of removal of 2-O- or N-sulfate on binding ([2]; 2-O-deS or N-deS vs unmodified 2IS),DNA-protein complex formation (DNA migration in agarose gel) (Linearized pcDNA3-vector),"binding to immobilized unfractionated heparins compared to FHCCP6-8(Y384) ([3]; 2IS, 4IS and 5IS)",interaction with biotinylated bovine kidney HS [4],binding to HS preparations HSI and HSII [5],binding to 6-O-deS and N-deS/re-N-Ac preparations versus parental 2IS [2],"effect of removal of 2-O-, 2,6-O- or N-sulfates on binding ([2]; vs unmodified 2IS)","binding to 4IS heparin relative to FHCCP6-8(H384) ([3]; heparin bound to allylamine-coated surface, biotinylated proteins)"
B1,"interact with DS, albeit to a lesser degree than heparin",large reduction,retained DNA in its protein-complex form more efficiently,more of the FHCCP6-8(H384) protein bound,interact,lack of activity,,,
B2,"interact with DS, albeit to a lesser degree than heparin",,migrated mainly in the non-complexed form,,interact,lack of activity,indistinguishable,small effect,bind less well
